# Data published in US20070172423A1, “Composition and method for modulating vasculogenesis for angiogenesis” (priority 1998, published 2007).
# How the values were obtained:
# PDGFR-α = PDGFR-α activation in cultured hSMC and NIH-3T3 cells (immunoprecipitation, pTyr blot); assay type: cell-based; conditions: treated cultured hSMC and NIH-3T3 fibroblast cells
# Method: RNase protection analysis (RPA) was performed according to the manufacturer's protocol (Ambion) to investigate gene expression at mRNA level. Riboprobes were prepared using RNA polymerase (Promega) and ^32P-UTP (Amersham). Mouse β-actin cDNA (250 bp, Ambion) was used as an internal control. For Western blot assay, subconfluent cells were rinsed with cold PBS supplemented with 5 µg/ml of antiprotease cocktail, lysed in RIPA buffer and analyzed on 10% acrylamide SDS PAGE in reducing condition. Two antibodies to PDGFR-α (rabbit polyclonal antibody, dilution: 1/500, Santa Cruz, sc431; and monoclonal peroxidase-labeled anti-rabbit antibody, dilution: 1/2500, Sigma, A-2074) were used for PDGFR-α protein detection. Membranes were developed using the Supersignal System (Pierce). […] The precipitants were analysed on SDS-PAGE, and immunoblotted using a monoclonal anti-phosphotyrosine antibody (Santa Cruz).
# The mitogenic and chemotactic effect of PDGF-CC was then tested on SMCs and perivascular fibroblast cells, and the effect of PDGF-CC was compared to that of VEGF and PDGF-AA in both cultured cells and the aortic ring assay (Blacher et al., Angiogenesis, 2001 4:133-42). […] In the aortic ring assay, we quantified the growth and emigration of perivascular fibroblasts from the intact vessel using computer-assisted image analysis after treatment with VEGF and different PDGFs at different concentrations. […]
# [1] = tested on: human microvascular endothelial cells (HMVEC); assay: Cell migration assay, HMVEC; assay type: cell-based; conditions: wounded monolayer, 20 hours, serum-free medium
# Method: Cell migration assays were performed on growth arrested confluent HMVEC, BAEC or hSMC cells. Cell monolayers were wounded with a rubber policeman and washed with serum-free medium. Dishes were then incubated for 20 hours in serum-free medium containing VEGF165, PDGF-AA, (R&D Systems, Minneapolis USA) or PDGF-CC. Each assay included two dishes per condition and was repeated three times independently. Cells were photographed at 40× magnification, and migration percentage corresponding to the ratio between area of the cells and the total area of the wound (Biocom visiol@b 2000 version 4.52, San Diego). For HMVEC proliferation assay, cells were seeded in 96-well plates (5 wells per condition), and incubated with VEGF, PDGF-AA, or PDGF-CC (50 ng/ml) after serum starvation. After 7 days, viable cells were counted using the cell Titer-glo luminescent cell viability assay. For NIH-3T3 and hSMC proliferation assay, cells cultured in 96-well plates were serum-starved overnight, followed by treatment with growth factors at different concentrations. Two days later, cell numbers were counted and proliferation percentage calculated, using cells cultured in medium containing 10% serum as control. Aortic ring assay was performed as described 51. […] Aortic rings were analysed at day 9 of culturing. […]
molecule,measurement,setting,value
"PDGF-CC: recombinant human PDGF-CC core domain homodimer, residues 230-345 of full-length PDGF-C (SEQ ID NO:40), produced in baculovirus infected insect cells (protein, homodimer; PDGF-C core domain) GRKSRVVDLNLLTEEVRLYSCTPRNFSVSIREELKRTDTIFWPGCLLVKRCGGNCACCLHNCNECQCVPSKVTKKYHEVLQLRPKTGVRGLHKSLTDVALEHHEECDCVCRGSTGG",PDGFR-α activation (pTyr),PDGFR-α,highly activated
same,migration of HMVECs,[1],stimulated
